Measurements reported in patent US8410045B2, “Camptothecin-peptide conjugates and pharmaceutical compositions containing the same” (Drais Pharmaceuticals, Inc., priority 2006, dated 2013).
Several values for one entry are separate records, joined by “and”; a condition that tells them apart may be missing. Equal entries are not always repeated. Where two headings read alike, the source gives them in different places. Marks after values point to notes of the source that are not given here.

Legend:
[1] = Stability of conjugates in citrated plasma at 37° C. (half life time, HPLC fluorescence); format: in vitro ADME; settings: DPV1047-linker-SN38, 2.55 μM
Procedure: The stability of the conjugates was tested in citrated plasma (10% (v/v) sodium citrate buffer, 0.106M) from different species (see Table 1 below). The conjugates at 2.55 μM were incubated at 37° C. in plasma. Samples were analysed using the HPLC fluorescence method described below (see chromatographic equipment and conditions) following TFA/acetonitrile extraction and the amount of free camptothecin, analogs or derivatives thereof (e.g. SN38) released by the conjugates was measured.
Chromatographic equipment and conditions: 150 μL of each sample were placed in 1.5 mL micro-centrifuge tubes. 450 μL of 5% (v/v) TFA in H2O was added to each tube and the mixture was vortexed for 5 seconds. Samples were then centrifuged at 16000 g, 3 minutes at +4° C. 100 μL of supernatant were placed in 1.5 mL micro-centrifuge tubes. Methanol (100 μL) was then immediately added and vortexed for 5 seconds. Samples were then centrifuged at 16000 g, 3 minutes at room temperature. 150 μL of supernatant were recovered for HPLC analysis. Conjugates, metabolites and camptothecin derivative (i.e. SN38) were separated by high-performance liquid chromatography (HPLC; Agilent 1100 series equipped with a fluorescence detector) using a 4.6×100 mm ([…] particle size) Luna C18(2) column (Phenomenex ref. 00D-4251-E0, Le Pecq, France). The aqueous component of the mobile phase (A) was 0.1% (v/v) TFA in water. The organic modifier (B) was acetonitrile containing 0.1% (v/v) TFA. For the conjugate and its metabolites an elution gradient increasing linearly the proportion of B from 15 to 37% in 2 min, from 37 to 47% in 6 min, followed by 2 min at 90% was applied with a constant flow rate of 1.2 mL/min. The proportion of B was then returned to the initial condition for 3.0 min.
The half life time of conjugate corresponds to the time necessary to have 50% by mole of free camptothecin, analogs or derivatives thereof released by the conjugates of the invention. In human plasma, the half life time of conjugate DPV1047-linker #1-SN38 (less than 5 mins) was shorter than that of conjugate DPV1047-linker #2-SN38 (6-7 mins), which, in turn, was shorter than that of conjugate DPV1047-linker #3-SN38 (12 mins).

[2] = Toxicity study in the beagle dog following intravenous infusion; settings: for Reduction in WBC at D5 (%) / Toxic signs Day 1 / Toxic signs Following Days: i.v. infusion
Procedure: Adult female and male beagle dogs were individually housed with free access to tap water. A pellet diet was distributed daily.
Dogs (1 dog for each drug and dose) were infused intravenously through the cephalic or saphenous vein. These intravenous infusions were made using a single-use catheter (Intraflon®) and a plastic syringe connected to a syringe pump. During the injection, the animals were restrained in a hammock.
Conjugates were dissolved in water for injection (10% of final volume) and diluted with 0.9% NaCl to their final concentration. The volume administered to each animal was adjusted according to body weight.
Clinical signs, hematological and intestinal toxicities were monitored during a period of 15 days after infusion. Each animal was checked at least twice a day for mortality or signs of morbidity.
The body weight of each animal was recorded on the day −1, 4, 10 and 13.
Peripheral blood samples were taken into EDTA tubes for the determination of following parameters on days −1, 5, 11 and 14: erythrocytes, hemoglobin, mean cell volume, packed cell volume, mean cell hemoglobin concentration, mean cell hemoglobin, thrombocytes, leucocytes, differential white cell count with cell morphology.

[3] = tested on: MDA-MB-231 mammary carcinoma; assay: Antitumor efficacy in MDA-MB-231 mammary carcinoma model in nude mice; format: in vivo; settings: Table 7, i.v. Q2D3 × 3 W
[4] = Pharmacokinetic study in the dog (blood, HPLC fluorescence); format: in vivo
Procedure: Peripheral blood samples were taken at different times following infusion for pharmacokinetic analysis.
Blood samples (2.5 mL) were collected in 5 mL in trisodium citrate tubes (Sarstedt S-Monovette® 9NC) containing 2.5 mL of 5% TFA (v/v) and vortexed for 5 seconds before storage at −80° C. (for less than two weeks).
Samples were then analyzed after a TFA and acetonitrile extraction by an HPLC fluorescence method, described below. […] Whole blood samples were acidified with TFA to protect the ester link of the conjugate against hydrolysis and allow protein precipitation to improve conjugate and SN38 recovery.
Five hundred microliters of each sample were then placed in 1.5 mL micro-centrifuge tubes to and centrifuged at 16000×g 3 min at +4° C. […] Methanol (100 μL) was then immediately added and the mixture stirred vigorously (vortex) for 5 seconds. Samples were then centrifuged at 16000×g, 3 min at room temperature.
One hundred and fifty microliters of the supernatant was recovered for HPLC analysis.
DPV1047-BCH-SN38 and its metabolite SN38 were separated by high-performance liquid chromatography (HPLC Agilent 1100 with a fluorescence detector) using the following method: […]

NCI-H460 lung carcinoma = assay: Antitumor efficacy in NCI-H460 lung carcinoma model in nude mice; settings: Table 7, i.v. Q2D3 × 3 W
[5] = tested on: HT-29 colorectal carcinoma; assay: Antitumor efficacy in HT-29 colorectal carcinoma model in nude mice; format: in vivo; settings: Table 7
[6] = tested on: LS 174T human colorectal carcinoma tumor; assay: Antitumor efficacy in human LS 174T xenograft colon tumor model implanted in nude rats; format: in vivo
Procedure: The LS 174T study was performed using female nude rats (8 weeks old) purchased from Harlan breeding center (Gannat, France). LS 174T tumors were established by a subcutaneously implantation of cell (ATCC Number: CCl-188) suspensions in the right flank of the animals. The first injection of drugs was performed when the tumors reached a size of about 1000 mm^3. The tumor volume was calculated using the following formula: [length×width^2]/2.

[7] = Table 4, 20 (cumulative 100) μmol/kg, i.v. bolus, Q3/4Dx5
[8] = Table 7, i.v. Q4D × 5, 10 μmol/kg
[9] = Table 7, i.v. Q4D × 5, 20 μmol/kg

SMILES: CCc1c2c(nc3ccc(OC(=O)[C@H]4CC[C@H](CNC(=O)C5CCC(CN6C(=O)CC(SC[C@H](N)C(=O)N[C@H](C(=O)N[C@@H](CCCCN)C(=O)N[C@@H](CCCNC(=N)N)C(=O)NCC(=O)N[C@@H](CC(C)C)C(=O)N[C@@H](CCCCN)C(=O)N[C@@H](CC(C)C)C(=O)N[C@@H](CCCNC(=N)N)C(=O)N[C@@H](Cc7c[nH]cn7)C(=O)N[C@H](C(=O)N[C@@H](CCCNC(=N)N)C(=O)N7CCC[C@H]7C(=O)N[C@@H](CCCNC(=N)N)C(=O)N[C@H](C(=O)N[C@H](C(=O)N[C@@H](CCCNC(=N)N)C(=O)N[C@@H](CCSC)C(=O)N[C@@H](CC(=O)O)C(=O)N[C@H](C(=O)O)C(C)C)[C@@H](C)O)C(C)C)C(C)C)C(C)C)C6=O)CC5)CC4)cc13)-c1cc3c(c(=O)n1C2)COC(=O)[C@]3(O)CC (single isomer, unassigned) [DPV1047-BCH-SN38]
- half-life ([1]; time to 50% by mole free SN38 released, read-out: Half life time, Mouse plasma): < 3 min
- half-life ([1]; monkey): 290 min
- half-life ([1]; rat): 14 min
- reduction in WBCs ([2]; dog, 20 mg/kg): 93%
- clinical signs of toxicity ([2]; dog, 30 mg/kg): clear toxicological signs including diarrhea and a severe hematoxicity
- Reduction in WBC at D5 (%) ([2]; dog, 5 mg/kg): −60%
- Toxic signs Day 1 ([2]; dog, 5 mg/kg): None
- Toxic signs Following Days ([2]; dog, 5 mg/kg): None
- Reduction in WBC at D5 (%) ([2]; dog, 10 mg/kg): −50% and −57%
- Toxic signs Day 1 ([2]; dog, 10 mg/kg): None
- Toxic signs Following Days ([2]; dog, 10 mg/kg): None
- Reduction in WBC at D5 (%) ([2]; dog, 20 mg/kg): −93%
- Toxic signs Day 1 ([2]; dog, 20 mg/kg): None
- Toxic signs Following Days ([2]; dog, 20 mg/kg): Decrease in food
- Reduction in WBC at D5 (%) ([2]; dog, 30 mg/kg): −96%
- Toxic signs Day 1 ([2]; dog, 30 mg/kg): None
- Toxic signs Following Days ([2]; dog, 30 mg/kg): Liquid faeces D4
- MTD ([2]; dog, in vivo, iv): ~20 mg/kg
- clinical signs ([2]; dogs, 5 and 10 mg/kg): no clinical signs
- Optimal T/C % ([3]; 12.5 μmol/kg): 34.1%
- TGI % ([3]; 12.5 μmol/kg): 65.9%
- Optimal T/C % ([3]; 25 μmol/kg): 30.1%
- TGI % ([3]; 25 μmol/kg): 69.9%
- circulating half life time in the blood compared to DPV1047-MIC-SN38 ([4]; dog blood (FIG. 2)): longer
- AUC of SN38 compared to DPV1047-MIC-SN38 ([4]; dog blood, equimolar dose (FIG. 1)): significantly greater
- SN38 Cmax and AUC versus dose of the conjugate ([4]; dog blood, non-toxic doses (DPV1047-BCH-SN38 ≦20 mg/kg, DPV1047-MIC-SN38 ≦50 mg/kg)): increased linearly with the dose
- Optimal T/C % (NCI-H460 lung carcinoma; 12.5 μmol/kg): 47.5%
- TGI % (NCI-H460 lung carcinoma; 12.5 μmol/kg): 52.5%
- Optimal T/C % (NCI-H460 lung carcinoma; 25 μmol/kg): 22.9%
- TGI % (NCI-H460 lung carcinoma; 25 μmol/kg): 77.1%
- Optimal T/C % ([5]; i.v. Q4D × 3, 12.5 μmol/kg): 66.8%
- TGI % ([5]; i.v. Q4D × 3, 12.5 μmol/kg): 33.2%
- Optimal T/C % ([5]; i.v. Q4D × 3, 25 μmol/kg): 39.2%
- TGI % ([5]; i.v. Q4D × 3, 25 μmol/kg): 60.8%
- Minimal T/C (%) [6, 7]: 43%
- TGI % [6, 7]: 57*** %
- Optimal T/C % [6, 8]: 47.2%
- TGI % [6, 8]: 52.8%
- Optimal T/C % [6, 9]: 42.8%
- TGI % [6, 9]: 57.2%
